# Laboratory results as given in patent US20190083600.
# System: T1, RSV attachment (G) glycoprotein of RSV strain A2
# T1 sequence: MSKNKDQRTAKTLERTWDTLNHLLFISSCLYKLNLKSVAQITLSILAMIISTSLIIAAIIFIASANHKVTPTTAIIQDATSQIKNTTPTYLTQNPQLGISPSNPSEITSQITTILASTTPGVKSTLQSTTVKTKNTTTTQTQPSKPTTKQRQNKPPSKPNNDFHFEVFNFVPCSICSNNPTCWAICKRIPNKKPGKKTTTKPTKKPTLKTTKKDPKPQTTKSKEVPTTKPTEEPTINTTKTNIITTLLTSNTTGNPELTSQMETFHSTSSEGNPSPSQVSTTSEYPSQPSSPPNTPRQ
substance,measurement,value
cathepsin L,G protein cleavage on virions treated in vitro with 50 ng/ul cathepsin L at pH 5.5 (immunoblot),"When incubated with cathepsin L after growth, the virus that was grown in the presence of a cathepsin L inhibitor contained a cleaved G protein"
